Compound in the data set: Nc1ncnc2c1ncn2[C@@H]1O[C@H](COP(=O)(O)OP(=O)(O)OP(=O)(O)O)[C@@H](O)[C@H]1O
As to the kind of experiment: Inhibition of human ALK (unknown origin) using poly[Glu:Tyr] as substrate by nanoliter kinase assay.

B1: ALK tyrosine kinase receptor (Homo sapiens), Q9UM73 (protein)
chain: MGAIGLLWLLPLLLSTAAVGSGMGTGQRAGSPAAGPPLQPREPLSYSRLQRKSLAVDFVVPSLFRVYARDLLLPPSSSELKAGRPEARGSLALDCAPLLRLLGPAPGVSWTAGSPAPAEARTLSRVLKGGSVRKLRRAKQLVLELGEEAILEGCVGPPGEAAVGLLQFNLSELFSWWIRQGEGRLRIRLMPEKKASEVGREGRLSAAIRASQPRLLFQIFGTGHSSLESPTNMPSPSPDYFTWNLTWIMKDSFPFLSHRSRYGLECSFDFPCELEYSPPLHDLRNQSWSWRRIPSEEASQMDLLDGPGAERSKEMPRGSFLLLNTSADSKHTILSPWMRSSSEHCTLAVSVHRHLQPSGRYIAQLLPHNEAAREILLMPTPGKHGWTVLQGRIGRPDNPFRVALEYISSGNRSLSAVDFFALKNCSEGTSPGSKMALQSSFTCWNGTVLQLGQACDFHQDCAQGEDESQMCRKLPVGFYCNFEDGFCGWTQGTLSPHTPQWQVRTLKDARFQDHQDHALLLSTTDVPASESATVTSATFPAPIKSSPCELRMSWLIRGVLRGNVSLVLVENKTGKEQGRMVWHVAAYEGLSLWQWMVLPLLDVSDRFWLQMVAWWGQGSRAIVAFDNISISLDCYLTISGEDKILQNTAPKSRNLFERNPNKELKPGENSPRQTPIFDPTVHWLFTTCGASGPHGPTQAQCNNAYQNSNLSVEVGSEGPLKGIQIWKVPATDTYSISGYGAAGGKGGKNTMMRSHGVSVLGIFNLEKDDMLYILVGQQGEDACPSTNQLIQKVCIGENNVIEEEIRVNRSVHEWAGGGGGGGGATYVFKMKDGVPVPLIIAAGGGGRAYGAKTDTFHPERLENNSSVLGLNGNSGAAGGGGGWNDNTSLLWAGKSLQEGATGGHSCPQAMKKWGWETRGGFGGGGGGCSSGGGGGGYIGGNAASNNDPEMDGEDGVSFISPLGILYTPALKVMEGHGEVNIKHYLNCSHCEVDECHMDPESHKVICFCDHGTVLAEDGVSCIVSPTPEPHLPLSLILSVVTSALVAALVLAFSGIMIVYRRKHQELQAMQMELQSPEYKLSKLRTSTIMTDYNPNYCFAGKTSSISDLKEVPRKNITLIRGLGHGAFGEVYEGQVSGMPNDPSPLQVAVKTLPEVCSEQDELDFLMEALIISKFNHQNIVRCIGVSLQSLPRFILLELMAGGDLKSFLRETRPRPSQPSSLAMLDLLHVARDIACGCQYLEENHFIHRDIAARNCLLTCPGPGRVAKIGDFGMARDIYRASYYRKGGCAMLPVKWMPPEAFMEGIFTSKTDTWSFGVLLWEIFSLGYMPYPSKSNQEVLEFVTSGGRMDPPKNCPGPVYRIMTQCWQHQPEDRPNFAIILERIEYCTQDPDVINTALPIEYGPLVEEEEKVPVRPKDPEGVPPLLVSQQAKREEERSPAAPPPLPTTSSGKAAKKPTAAEISVRVPRGPAVEGGHVNMAFSQSNPPSELHKVHGSRNKPTSLWNPTYGSWFTEKPTKKNNPIAKKEPHDRGNLGLEGSCTVPPNVATGRLPGASLLLEPSSLTANMKEVPLFRLRHFPCGNVNYGYQQQGLPLEAATAPGAGHYEDTILKSKNSMNQPGP
As for B1, the Km (commonly the substrate concentration at which the rate is half of its maximum) turned out to be 50 µM.

Source of the values: ChEMBL document CHEMBL3091431, “Aminopyridyl/Pyrazinyl Spiro[indoline-3,4'-piperidine]-2-ones As Highly Selective and Efficacious c-Met/ALK Inhibitors” (ACS Med Chem Lett, 2013).
